Results from PMC3634827.

What was measured:
CoREST [1] = biological target: CoREST (UniProt Q8CFE3); test: FLAG co-immunoprecipitation, immunoblot quantitated with ImageJ; settings: NIH 3T3 cells transiently transfected; mean of two independent experiments; parent: est. 1.0; read off a plot
CoREST [2] = biological target: CoREST (UniProt Q8CFE3); test: co-immunoprecipitation of endogenous proteins (CoREST IP'ed with Lsd1), immunoblot quantitated with ImageJ; settings: primary MEFs; mean of three independent experiments; p<0.005 vs wild type; parent: est. 1.0; read off a plot
CoREST [3] = biological target: CoREST (UniProt Q8CFE3); test: co-immunoprecipitation of endogenous proteins (Lsd1 IP'ed with CoREST), immunoblot quantitated with ImageJ; settings: primary MEFs; mean of three independent experiments; p<0.001 vs wild type; parent: est. 1.0; read off a plot

Sequence of UniProt Q8CFE3 (Q8CFE3 whole entry): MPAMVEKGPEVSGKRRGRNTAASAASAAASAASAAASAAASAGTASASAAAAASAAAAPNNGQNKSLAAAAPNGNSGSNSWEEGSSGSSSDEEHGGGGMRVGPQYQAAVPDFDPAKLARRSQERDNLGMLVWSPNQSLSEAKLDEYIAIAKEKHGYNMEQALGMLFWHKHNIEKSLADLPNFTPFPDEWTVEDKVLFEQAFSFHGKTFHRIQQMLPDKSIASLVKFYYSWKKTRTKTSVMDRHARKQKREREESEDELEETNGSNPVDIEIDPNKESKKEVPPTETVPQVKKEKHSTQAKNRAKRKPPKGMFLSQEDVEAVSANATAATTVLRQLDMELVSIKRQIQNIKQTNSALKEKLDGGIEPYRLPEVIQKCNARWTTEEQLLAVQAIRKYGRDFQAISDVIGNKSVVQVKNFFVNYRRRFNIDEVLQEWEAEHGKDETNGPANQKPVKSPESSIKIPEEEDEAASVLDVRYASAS

Row | Substance | ratio to parent (CoREST [1]) | ratio to parent (CoREST [2]) | ratio to parent (CoREST [3])
1 | FLAG-tagged wild-type Lsd1 (lysine-specific demethylase 1) (from UniProt Q6ZQ88) E413G | 0.89 |  | 
2 | endogenous wild-type Lsd1 (from UniProt Q6ZQ88) E413G; M448V |  | 0.44 | 0.11
3 | FLAG-tagged wild-type Lsd1 (lysine-specific demethylase 1) (from UniProt Q6ZQ88) N535A | 1.8 |  | 
4 | FLAG-tagged wild-type Lsd1 (lysine-specific demethylase 1) (from UniProt Q6ZQ88) M448V | 0.35 |  | 
5 | FLAG-tagged wild-type Lsd1 (lysine-specific demethylase 1) (from UniProt Q6ZQ88) E413G; M448V | 0.09 |  | 
